For data set [1], the target named is T1, MLDSR (GST-MLDSR) (Rhodococcus jostii RHA1, UniProt A0A1H4Y2R3 2-168).
T1 sequence: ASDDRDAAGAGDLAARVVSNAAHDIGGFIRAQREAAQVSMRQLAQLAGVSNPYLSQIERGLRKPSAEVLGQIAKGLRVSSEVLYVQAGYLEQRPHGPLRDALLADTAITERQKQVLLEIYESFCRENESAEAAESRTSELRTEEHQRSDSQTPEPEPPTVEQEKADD
Kind of data set: SPR; 1:1 model though DNA holds two sites; EMSA: 20 mM Tris-HCl pH 7.5, 150 mM NaCl, 5 mM MgCl2, 1 mM EDTA, 1 mM DTT, 4% glycerol, 24 C or room temperature, 30-40 min; SPR: 20 mM Tris-HCl pH 7.5, 150 mM. The settings on record: protein: recombinant; tags: N-terminal GST; label: 5'-biotin on strand 1; blunt.

Data set [2] has as its target T1, MLDSR (GST-MLDSR). Kind of data set: EMSA; rough estimate by authors from Fig. 5b; EMSA: 20 mM Tris-HCl pH 7.5, 150 mM NaCl, 5 mM MgCl2, 1 mM EDTA, 1 mM DTT, 4% glycerol, 24 C or room temperature, 30-40 min; SPR: 20 mM Tris-HCl pH 7.5, 150 mM. The settings on record: protein: recombinant; tags: N-terminal GST; blunt.
The target in data set [3] is T1, MLDSR (GST-MLDSR). Kind of data set: SPR; EMSA: 20 mM Tris-HCl pH 7.5, 150 mM NaCl, 5 mM MgCl2, 1 mM EDTA, 1 mM DTT, 4% glycerol, 24 C or room temperature, 30-40 min; SPR: 20 mM Tris-HCl pH 7.5, 150 mM. The settings on record: protein: recombinant; tags: N-terminal GST; label: 5'-biotin on strand 1; blunt. Background: Surface plasmon resonance follows binding to a sensor surface in real time, without labels.

Data set [4] addresses T1, MLDSR (GST-MLDSR). The experiment in a line: EMSA; EMSA: 20 mM Tris-HCl pH 7.5, 150 mM NaCl, 5 mM MgCl2, 1 mM EDTA, 1 mM DTT, 4% glycerol, 24 C or room temperature, 30-40 min; SPR: 20 mM Tris-HCl pH 7.5, 150 mM. The settings on record: protein: recombinant; tags: N-terminal GST; blunt. In general terms: In EMSA bound probe runs differently from free probe, usually more slowly.

B1: biotin-43 bp (motif 1+2) (dsDNA)
DNA 1: TCCGCTAGCTGGGTGCTAACAGAGTGCTTGCAATTGCTAGCAC
DNA 2: GTGCTAGCAATTGCAAGCACTCTGTTAGCACCCAGCTAGCGGA
Take B1: the Kd in data set [1] was 62 nM.

B2: 43 bp (motif 1+2) (dsDNA)
DNA 1: B1 DNA 1
DNA 2: B1 DNA 2
Consider B2, for which the Kd in data set [2] is about 442 nM.

B3: biotin-motif 1 (20 bp) (dsDNA)
DNA 1: GTGCTTGCAATTGCTAGCAC
DNA 2: GTGCTAGCAATTGCAAGCAC
With B3, the equilibrium dissociation constant (Kd) in data set [3] was determined as 175 nM.

B4: biotin-motif 2 (23 bp) (dsDNA)
DNA 1: TCCGCTAGCTGGGTGCTAACAGA
DNA 2: TCTGTTAGCACCCAGCTAGCGGA
With B4, the Kd in data set [3] was determined as 5140 nM.

B5: 103 bp (dsDNA)
DNA 1: CAATCGCCTCGACGGAGGGTCCGCTAGCTGGGTGCTAACAGAGTGCTTGCAATTGCTAGCACCCTGCTTTAGCCTTGGTTCTGCCCAGCAACACGGAGGACTG
DNA 2: CAGTCCTCCGTGTTGCTGGGCAGAACCAAGGCTAAAGCAGGGTGCTAGCAATTGCAAGCACTCTGTTAGCACCCAGCTAGCGGACCCTCCGTCGAGGCGATTG
As to B5, the binding result in data set [4] was “binds”.

As a reminder, the Kd is the concentration at which binding is half-saturated.

Source of the values: paper PMC5504291, “Bacterial lipid droplets bind to DNA via an intermediary protein that enhances survival under stress”.
